Experimental data reported in publication PMC3066073.
Where two headings read alike, the source gives them in different places.

How the values were obtained:
[1] = target: T1, RUNX1 (recombinant) (UniProt Q01196 1-453); assay: EMSA, supershift
[2] = target: T1, RUNX1 (recombinant); assay: EMSA, supershift; remark: listed apart in the source

T1 sequence (Q01196 whole entry): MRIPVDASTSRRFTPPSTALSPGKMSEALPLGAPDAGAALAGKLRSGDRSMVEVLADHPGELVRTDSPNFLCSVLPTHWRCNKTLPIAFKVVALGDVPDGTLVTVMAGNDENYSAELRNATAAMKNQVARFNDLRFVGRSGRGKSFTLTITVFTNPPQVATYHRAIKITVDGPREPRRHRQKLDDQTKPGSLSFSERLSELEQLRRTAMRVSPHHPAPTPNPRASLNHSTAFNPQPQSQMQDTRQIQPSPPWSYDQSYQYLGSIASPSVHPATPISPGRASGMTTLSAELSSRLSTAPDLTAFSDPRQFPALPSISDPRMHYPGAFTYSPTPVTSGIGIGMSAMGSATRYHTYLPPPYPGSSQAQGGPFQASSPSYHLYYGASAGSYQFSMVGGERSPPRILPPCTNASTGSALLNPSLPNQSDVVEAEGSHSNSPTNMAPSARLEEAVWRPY

Binder	binding result [1]	binding result [2]
PKC-theta Wt probe I (dsDNA) DNA 1: CAAATGCCTGGGGTAGGTCA DNA 2: TGACCTACCCCAGGCATTTG	binds	–
PKC-theta Wt probe III (dsDNA) DNA 1: ATGAGCCACCGCACCTGGCC DNA 2: GGCCAGGTGCGGTGGCTCAT	–	binds
